Data set [1] concerns the molecule itself. The experiment in a line: SEC + native gel or EMSA; purified CHASE4 domain in solvent.
Data set [2] concerns the molecule itself. As to the kind of experiment: cryo-EM structure; ImcA with the substrate analog GMPCPP, 10 mg/ml, 3.07 Å, C2 symmetry.

B1: CHASE4 domain of IsmP (CHASE4^IsmP) (domain or fragment)
chain: not shown
notes: CHASE4 domain of IsmP (PA2072) of Pseudomonas aeruginosa PAO1; interface residues Q51, W55 and P247 lie outside 59-220; also called CHASE4 (IsmP^40-255); source: E. coli BL21, purified (HisTrap HP)
B1: the “stoichiometry N” value in data set [1] was 2.

B2: PA1851 protein (purified ImcA) (natural protein)
chain: MLARDSLVQAGLPDNPYARQLRNGFRWLRFEKELENEFREFLSWNSLMQRRAAIGVAFLIWALFIVADWMMVDIRLHPSLFEQLLGVRLGMIGLLLVVWPAAFLPSLRKVGDAIAPYCLLLINLAVLACDVLFEWHGVPRFTQLGATLGILAVFFPLGLAFWACVRLALLCLALNLAVFLLFGGEENLRTNLLNTLYNGLVVLICSFALYLQDYAQREQFLGRRLLGMMAEQDSLTGLVNRRYYELLAQRALEQGAREEKGVALILVDVDDFKAYNDHYGHPAGDAALRQLGVVLRQGARRPLDIAARLGGEEFAVLLYDSEEGNTLAIAERLRQAVEALGIEHLGSSAGPCLTISLGVAYSTSGMGLDALYREADRALYEAKDAGRNAVRVAFRQHDRLE
notes: ImcA (PA1851) of Pseudomonas aeruginosa PAO1; 6TM domain L47-E231, GGDEF domain R241-A393; Homodimer in the cryo-EM structure with GMPCPP; source: E. coli BL21 (DE3), purified (membrane fraction, DDM, Strep-Tactin, Superose 6)
In the case of B2, the binding result in data set [2] is “binds”.

(Values after article PMC10904736, “A c-di-GMP signaling module controls responses to iron in Pseudomonas aeruginosa” (Nature Communications, 2024).)
